# Laboratory results taken from patent EP1988168A1 (Max-Planck-Gesellschaft zur Förderung der Wissenschaften …, dated 2008).
# B1: Syn7002-RbcL peptide 2, KEIKFEFDTVD (peptide)
# peptide: KEIKFEFDTVD
# B2: Syn7002-RbcL (enzyme, Synechococcus sp. PCC7002, UniProt Q44176 1-470, looked up)
# chain: MQTKSAGFNAGVQDYRLTYYTPDYTPKDTDLLACFRMTPQPGVPPEECAAAVAAESSTGTWTTVWTDGLTDLDRYKGRCYNVEPVPGEDNQYFCFVAYPLDLFEEGSVTNVLTSLVGNVFGFKALRALRLEDIRFPVALIKTYQGPPHGITVERDLLNKYGRPLLGCTIKPKLGLSAKNYGRAVYECLRGGLDFTKDDENINSQPFMRWRDRFLFVQEAIEKSQAETNEVKGHYLNVTAGTCEEMLKRAEFAKEIGTPIIMHDFLTGGFTANTTLAKWCRDNGVLLHIHRAMHAVIDRQKNHGIHFRVLAKCLRLSGGDHLHSGTVVGKLEGDRAATLGFVDLMREDYVEEDRSRGVFFTQDYASLPGTMPVASGGIHVWHMPALVEIFGDDSCLQFGGGTLGHPWGNAPGATANRVALEACVQARNEGRSLAREGNDVLREAGKWSPELAAALDLWKEIKFEFDTVDTL
# notes: Stood in the assays as monomers, dimers, assembly intermediates or RbcL8 core complex, depending on the experiment; also called wildtype RbcL; RbcL8
# B3: AnaCA-RbcX (other, Anabaena sp. CA, UniProt Q44212 1-135, looked up)
# chain: MNLKQIAKDTAKTLQSYLTYQALRTVLAQLGETNPPLALWLHNFSAGKVQDGEKYIEELFLEKPDLALRIMTVREHIAEEIAEFLPEMVVTGIQQANMEKRRQHLERMTQVSLSHPSPESEQQQFSDPDWDNLAS
# notes: also called RbcX from Anabaena sp; CA
# B4: Syn7002-RbcX (other, Synechococcus sp. PCC7002, UniProt Q44177 1-134, looked up)
# chain: MEFKKVAKETAITLQSYLTYQAVRLISQQLSETNPGQAIWLGEFSKRHPIQESDLYLEAMMLENKELVLRILTVRENLAEGVLEFLPEMVLSQIKQSNGNHRRSLLERLTQVDSSSTDQTEPNPGESDTSEDSE
# notes: Assembly chaperone; also called RbcX of Synechococcus sp; PCC7002; non-tagged Syn7002-RbcX
# Experiments:
# [1] = biological target: B4; assay: isothermal titration calorimetry, peptide titrated into RbcX dimer at 22°C
# [2] = biological target: B3; assay: as above
# [3] = biological target: B2; assay: co-immunoprecipitation with anti-FLAG antibody from E. coli extract
# [4] = biological target: T1, GroEL (E. coli, UniProt P0A6F5 2-548); assay: in vitro translation, Native-PAGE, autoradiography
# T1 construct: also called E. coli GroEL; chaperonin
# [5] = biological target: Syn7002-RbcL(1-459) (Synechococcus sp. PCC7002, UniProt Q44176 1-459); assay: coexpression in E. coli, Native-PAGE and immunoblot
# [6] = biological target: T2, Syn7002-RbcL(F462A, F464A) (Synechococcus sp. PCC7002, UniProt Q44176 1-470); assay: as above
# T2 construct: also called RbcL(F462A/F464A) double mutant
# [7] = biological target: B1; assay: comparison of the ITC affinities for the C-terminal RbcL peptide
# [8] = biological target: B2; assay: displacement of RbcL from anti-FLAG beads carrying the Syn7002-RbcL/Syn7002-RbcXFLAG complex, 15 min at room temperature, immunoblot; competitor Syn7002-RbcXFLAG
# [9] = biological target: T2, Syn7002-RbcL(F462A, F464A); assay: pulse-chase in vitro translation, Bis-Tris Native-PAGE, autoradiography
# T1 sequence (P0A6F5 2-548 limits assumed): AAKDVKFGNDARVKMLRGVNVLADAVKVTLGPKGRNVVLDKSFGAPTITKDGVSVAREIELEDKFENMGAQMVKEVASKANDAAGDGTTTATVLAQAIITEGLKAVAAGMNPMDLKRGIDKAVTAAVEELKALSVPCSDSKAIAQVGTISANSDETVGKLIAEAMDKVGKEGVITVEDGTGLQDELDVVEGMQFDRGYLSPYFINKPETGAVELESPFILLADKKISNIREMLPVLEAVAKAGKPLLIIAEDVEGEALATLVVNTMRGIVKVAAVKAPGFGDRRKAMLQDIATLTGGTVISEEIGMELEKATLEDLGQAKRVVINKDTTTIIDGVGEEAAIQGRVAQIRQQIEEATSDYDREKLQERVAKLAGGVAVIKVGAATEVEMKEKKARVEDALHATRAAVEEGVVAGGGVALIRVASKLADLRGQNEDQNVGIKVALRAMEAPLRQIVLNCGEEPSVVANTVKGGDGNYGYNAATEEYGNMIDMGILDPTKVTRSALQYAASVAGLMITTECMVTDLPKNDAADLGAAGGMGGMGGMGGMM
binder,measurement,setting,value
"EIKFEFD (also called peptide EIKFEFD) [Syn7002-RbcL peptide 1, EIKFEFD]",Kd,[1],~230 µM
same,Kd,[2],~60 µM
"Syn7002-RbcXFLAG (other, Synechococcus sp. PCC7002, Coexpressed with RbcL in E. coli and pulled down with anti-FLAG M2 beads; also called N-terminally FLAG-tagged wildtype RbcX; FLAG-tagged Syn7002-RbcX) MDYKDDDDKAGMEFKKVAKETAITLQSYLTYQAVRLISQQLSETNPGQAIWLGEFSKRHPIQESDLYLEAMMLENKELVLRILTVRENLAEGVLEFLPEMVLSQIKQSNGNHRRSLLERLTQVDSSSTDQTEPNPGESDTSEDSE",binding result,[3],binds
B1,Kd,[1],~160 µM
same,Kd,[2],~5 µM
B2,binding result,[4],binds
B3,binding result,[5],no binding
same,binding result,[6],no binding
same,fold higher affinity (against Syn7002-RbcX),[7],30 fold
B4,IC50,[8],~1 µM
"AnaCA-RbcXFLAG (other, Anabaena sp. CA, also called FLAG-tagged AnaCA-RbcX) MDYKDDDDKAGMNLKQIAKDTAKTLQSYLTYQALRTVLAQLGETNPPLALWLHNFSAGKVQDGEKYIEELFLEKPDLALRIMTVREHIAEEIAEFLPEMVVTGIQQANMEKRRQHLERMTQVSLSHPSPESEQQQFSDPDWDNLAS",binding result,[9],no binding (tested: 40 µM RbcX)
